These results are taken from patent publication US20070098718A1 (Novartis, published 2007).

The target in this experiment is T1, Recombinant soluble CD40-his (human, UniProt P25942 21-193, limits assumed).
T1 construct: not shown: his tag
Description: binding affinity to human CD40 (Biacore per paragraph 64).

T1 sequence (P25942 21-193 limits assumed): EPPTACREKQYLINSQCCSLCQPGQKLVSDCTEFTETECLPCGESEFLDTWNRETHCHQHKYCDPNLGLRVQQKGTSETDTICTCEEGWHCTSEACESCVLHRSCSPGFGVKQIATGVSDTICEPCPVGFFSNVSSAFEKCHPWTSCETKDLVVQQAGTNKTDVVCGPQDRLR

B1: monoclonal antibody CHIR-5.9 (antibody, human IgG1, kappa, V domains shown)
VH: EVQLVQSGAEVKKPGESLKISCKGSGYSFTSYWIGWVRQMPGKGLEWMGIIYPGDSDTRYSPSFQGQVTISADKSISTAYLQWSSLKASDTAMYYCARGTAAGRDYYYYYGMDVWGQGTTVTVSS
VL: AIVMTQPPLSSPVTLGQPASISCRSSQSLVHSDGNTYLNWLQQRPGQPPRLLIYKFFRRLSGVPDRFSGSGAGTDFTLKISRVEAEDVGVYYCMQVTQFPHTFGQGTRLEIKR
notes: Fully human IgG1 kappa anti-human CD40 mAb; also called mAb CHIR-5.9; antibody of hybridoma 131.2F8.5.9
On to B1, for which the Kd turned out to be 12 nM.

B2: monoclonal antibody CHIR-12.12 (antibody, human IgG1, kappa, V domains shown)
VH: QVQLVESGGGVVQPGRSLRLSCAASGFTFSSYGMHWVRQAPGKGLEWVAVISYEESNRYHADSVKGRFTISRDNSKITLYLQMNSLRTEDTAVYYCARDGGIAAPGPDYWGQGTLVTVSS
VL: DIVMTQSPLSLTVTPGEPASISCRSSQSLLYSNGYNYLDWYLQKPGQSPQVLISLGSNRASGVPDRFSGSGSGTDFTLKISRVEAEDVGVYYCMQARQTPFTFGPGTKVDIRR
notes: Fully human IgG1 kappa anti-human CD40 mAb; also called antibody of hybridoma 153.8E2.D10.D6.12.12
For B2, the equilibrium dissociation constant (Kd) came out at 0.5 nM.
